Numbering of substitutions follows the chain as printed. In names and notes the source's numbering stands.
B1: Wild type: unmodified deacetoxycephalosporin C synthase (DAOCS, expandase) (protein, UniProt P18548 1-311, looked up)
Deacetoxycephalosporin C …: MDTTVPTFSLAELQQGLHQDEFRRCLRDKGLFYLTDCGLTDTELKSAKDLVIDFFEHGSEAEKRAVTSPVPTMRRGFTGLESESTAQITNTGSYSDYSMCYSMGTADNLFPSGDFERIWTQYFDRQYTASRAVAREVLRATGTEPDGGVEAFLDCEPLLRFRYFPQVPEHRSAEEQPLRMAPHYDLSMVTLIQQTPCANGFVSLQAEVGGAFTDLPYRPDAVLVFCGAIATLVTGGQVKAPRHHVAAPRRDQIAGSSRTSSVFFLRPNADFTFSVPLARECGFDVSLDGETATFQDWIGGNYVNIRRTSKA
B2: P168V: DAOCS mutant whose recombinant enzyme was insoluble (protein, UniProt P18548 1-311, looked up, variant P168V)
Deacetoxycephalosporin C …: B1 Deacetoxycephalosporin C … with P168V

Columns and labels:
E. coli X580 cells = experiment: Hole-plate bioassay containing penicillinase, on enzyme reaction products; type: cell-based; settings: products of the reaction with penicillin G; hole-plate assay with penicillinase
Description: (§1) Almost all the mutants expressed well, except R88I, R88Q and R87Q/R287Q whereby the expression level was only about half of others. Generally the expression level of colonies was about 10˜20% of soluble protein at 27° C. Moreover, recombinant enzyme of P168V mutant was insoluble. These mutant enzymes were purified to ˜60-70% purity with Resouce-Q column (Phamacia). The activity of each mutant with respect to penicillin N and its side-chain analogues was analysed by bioassay. […] Screening of the substrate conversion of penicillins mutants was also performed using a assay with radiolabelled α-ketoglutarate. The reaction conditions were the same as for bioassay except that [^14C]-α-ketoglutarate was used.

DAOCS [1] = experiment: Specific activity of DAOCS mutants by turnover of α-[14C]-ketoglutarate with penicillin substrates; type: biochemical
Description: as §1

DAOCS [2] = target: DAOCS (Streptomyces clavuligerus, UniProt P18548); settings: compared with conversion of penicillin N to DAOC; cited from earlier work
[3] = Expression of recombinant DAOCS mutants, solubility of the enzyme; settings: expressed at 27° C.
Excerpt: A U.S.E mutagenesis kit (Phamacia) was used for all the mutagenesis reactions and a Pst I restriction site on the pET vector was selected. Selection of single and double mutants were successfully performed from colonies by restriction enzyme digestion. (Sambrook et al, Molecular Cloning, A Laboratory Manual, Cold Spring Harbour, USA, 1989). […] Mutations of DAOCS (Table 1) were confirmed by sequencing according to the dideoxy method of Sanger. Mutants were designed after study of the IPNS-Mn^2+ and the IPNS-Fe(II)-ACV structures. Polar residues with which the side chain D-α-aminoadipoyl (carboxylate and amino groups) might bind to were identified.
as §1

| Molecule | Inhibition of growth of E. coli X580 cells (E. coli X580 cells) | Specific activity (DAOCS [1]; substrate 6-Aminopenicillanic acid (6-APA)) [nmol/min/mg] | Specific activity (DAOCS [1]; substrate Adipyl-6-APA) [nmol/min/mg] | Specific activity (DAOCS [1]; substrate Ammoxicillin) [nmol/min/mg] | Specific activity (DAOCS [1]; substrate Ampicillin) [nmol/min/mg] | Specific activity (DAOCS [1]; substrate Carbenicillin) [nmol/min/mg] | Specific activity (DAOCS [1]; substrate Cloxacillin) [nmol/min/mg] | Specific activity (DAOCS [1]; substrate Methicillin) [nmol/min/mg] | Specific activity (DAOCS [1]; substrate Penicillin G) [nmol/min/mg] | Specific activity (DAOCS [1]; substrate Penicillin N, uncoupled decarboxylation subtracted) [nmol/min/mg] | Specific activity (DAOCS [1]; substrate Penicillin V) [nmol/min/mg] | Oxacillin accepted as substrate (in words) (DAOCS [1]; substrate oxacillin) | Specific activity (DAOCS [1]; substrate oxacillin) [nmol/min/mg] | Piperacillin accepted as substrate (in words) (DAOCS [1]; substrate piperacillin) | Specific activity (DAOCS [1]; substrate piperacillin) [nmol/min/mg] | Efficiency of conversion of penicillin G to phenylacetylcephalosporin C (DAOCS [2]) | Solubility of recombinant enzyme [3] |
| --- | --- | --- | --- | --- | --- | --- | --- | --- | --- | --- | --- | --- | --- | --- | --- | --- | --- |
| B1 | showed the same inhibition | 1.0 ± 0.2 | 2.7 | 1.4 ± 0.6 | 0 | 0 | 1.6 ± 0.6 | 0 | 5.1 ± 0.4 | 6.4 | 5.3 ± 0.3 | neither oxacillin nor piperacillin are substrates | 0 | neither oxacillin nor piperacillin are substrates | 0 | much less efficient |  |
| B2 |  |  |  |  |  |  |  |  |  |  |  |  |  |  |  |  | insoluble |

Source: patent US20030088058A1, “ISOPENICILLIN N SYNTHETASE AND DEACETOXYCEPHALOSPORIN C SYNTHETASE ENZYMES AND METHODS” (priority 1996, published 2003)
